From publication PMC11577023

Columns and labels:
Assay in all cases: […] (pH 7.4), 0.5 mL/min; […]
[1] = molecular target: rTET-NA derived from A/Michigan/45/2015 N1 (not stated | influenza A virus A/Michigan/45/2015 (H1N1))
[2] = molecular target: rTET-NA derived from A/Singapore/INFIMH-16-0019/2016 N2 (not stated | influenza A virus A/Singapore/INFIMH-16-0019/2016 (H3N2))
[3] = molecular target: rTET-NA derived from B/Phuket/3073/2013 (B/Yamagata/16/88-like lineage) (not stated | influenza B virus B/Phuket/3073/2013 (B/Yamagata/16/88-like lineage))
[4] = molecular target: rTET-NA derived from B/Colorado/06/2017 (B/Victoria/2/87-like lineage) (not stated | influenza B virus B/Colorado/06/2017 (B/Victoria/2/87-like lineage))

“rTET-NA derived from A/Michigan/45/2015 N1 (enzyme)” showed a stoichiometry N [1] of 4.

In the case of “rTET-NA derived from A/Singapore/INFIMH-16-0019/2016 N2 (enzyme)”, the stoichiometry N [2] is reported as 4.

Substance “rTET-NA derived from B/Phuket/3073/2013 (B/Yamagata/16/88-like lineage) (enzyme)” has a stoichiometry N [3] of 4.

With “rTET-NA derived from B/Colorado/06/2017 (B/Victoria/2/87-like lineage) (enzyme)” the stoichiometry N [4] was 4.
